Measurements: the MegaScale stability set (Tsuboyama et al. 2023)

B1: 5KPH (parent)
chain: EEKRQVKQVAKEKLLEQSPNSKVQVRRVQKQGNTIRVELELRTNGKKENYTVEVERQGNTWTVKRITRT

Variants of: B1
Assay: folding stability dG (cDNA display proteolysis); higher = more stable
Conditions: PBS, room temperature

Folding stability dG [kcal/mol] of substitutions, site by site:
T51: N 3.09; M 3.95; Y 3.75; S 3.75; K 3; F 3.66; V 4.22; G 2.5; I 4.13; C 3.59; D 3.01; W 3.98; L 3.99; H 3.24; Q 3.56; R 3.33; A 3.6; E 3.87
K46: W 3.7; T 3.85; Q 3.84; S 3.73; F 3.81; R 4.01; V 3.98; G 3.49; E 3.44; Y 3.93; A 3.65; N 3.81; M 3.89; D 3.43; H 3.9; I 4.03; C 3.6; L 3.79; P 2.63
E48: F 3.57; W 3.87; D 3.35; G 2.67; R 3.35; Q 3.7; T 3.65; V 3.63; H 3.34; A 3.58; M 3.55; S 3.57; L 3.39; Y 3.75; P 1.23; C 3.38; N 3.08; I 3.52; K 3.22
V52: I 3.65; T 1.61; C 2.92; G 0.851; Q -0.464; A 3.31; L 3.48; Y 1.78; F 2.52; M 3.22; S 1.21; W 1.58
L39: Y 2.59; C 3.88; G 2.35; M 3.66; S 1.55; R -0.147; H 0.352; W 2.03; I 3.67; T 2.59; A 3.65; F 3.48; K -0.798; N -0.472; V 3.83
R42: P 1.28; F 4.66; W 4.57; C 3.54; H 3.91; T 4.4; L 4.08; V 4.14; I 4.28; Q 3.81; G 3.04; E 4.12; K 3.57; A 3.59; M 3.85; D 4.2; N 4.19; Y 4.45; S 3.91
E53: I 4.15; H 3.47; W 4.23; R 2.69; K 2.54; T 3.62; S 3.33; D 3.76; Q 3.39; G 2.14; L 4.04; Y 4.21; F 4.03; M 3.58; A 2.99; V 3.94; N 2.78; C 3.34; P -0.812
L41: P 0.528; G 2.38; C 3.37; N 1.7; H 2.19; Y 2.35; Q 2.91; K 2.73; R 2.65; S 3.24; W 2.39; A 3.63; V 4.07; D 2.04; I 3.59; T 3.36; E 1.66; F 2.69; M 3.89
E40: G 2.84; W 3.95; N 3.12; H 3.59; S 3.73; I 4.1; Y 3.89; P 0.357; R 3.46; C 3.51; Q 3.91; A 3.52; L 3.96; K 3.32; V 4.23; M 3.87; F 3.81; T 4.12; D 3.04
E38: M 4.43; D 3.91; R 3.69; A 3.62; L 4.18; W 4.29; G 3.2; I 4.1; H 4.14; T 3.99; Q 3.76; Y 4.76; V 3.85; K 3.7; S 3.89; N 3.51; C 3.66; F 4.66; P 1.08
G45: S 3.75; K 3.4; D 3.57; P 1.96; T 3.49; I 2.91; Y 3.55; W 3.66; V 2.85; E 3.49; N 3.55; Q 3.5; L 3.42; H 3.44; F 3.97; M 3.52; R 3.42; A 3.5; C 3.29
V54: E 1.33; K 1.28; A 2.62; L 3.94; R 0.035; G 1.44; F 4.06; C 3.36; I 3.92; N 0.723; Q 0.909; D -0.632; M 3.85; H 0.815
N49: P 2.7; I 4.22; C 3.73; W 4.2; S 3.86; K 4.23; H 4.04; F 4.14; Q 3.93; G 3.81; M 4.18; V 4.07; T 4.14; A 3.73; E 3.61; R 4.09; D 3.57; L 4.4; Y 4.3
K47: V 4.06; R 4.02; G 3.03; T 4.05; C 3.64; D 2.91; H 3.94; P 3.31; F 3.86; I 4.14; A 3.71; Q 3.64; Y 3.8; E 3.13; N 3.59; W 3.75; S 3.92; L 4.04; M 3.77
Y50: I 3.17; A 2.98; C 2.79; P -0.674; L 2.84; M 2.58; G 0.705; K 1.24; W 4.12; E -0.081; F 3.74; T 1.47; Q 1.33; V 3.56; H 2.1; N 0.663; R 1.2; S 1.25
R36: V 4.13; P 0.344; H 4.04; I 4.34; W 4.21; N 3.7; Y 4.54; Q 3.75; K 4.23; T 3.9; L 4.33; M 4.23; S 3.85
T43: G 3.6; N 3.87; M 3.68; W 3.7; K 3.69; C 3.24; Q 3.91; D 3.65; S 3.85; L 3.94; A 3.72; H 3.98; E 3.78; Y 3.88; R 3.47; I 3.72; V 3.65; P 2.17; F 3.87
N44: S 3.76; A 3.81; I 3.46; Y 3.78; C 3.5; G 3.79; F 3.7; M 3.84; K 3.77; R 3.66; V 3.47; E 4.02; H 3.79; D 3.79; W 3.67; L 3.83; Q 3.67; T 3.27; P 3.4
V37: S 0.645; M 2.89; F 2.39; Y 2.32; R -0.176; N -0.204; T 1.28; L 3.33; A 2.15; Q -0.216; C 2.65; G 1.21; H -0.646; K 0.177; W 1.87; I 3.5
